Data taken from the supplement of paper PMC9112550, “Optimization of the antimicrobial peptide Bac7 by deep mutational scanning” (BMC Biology, 2022).

System: Escherichia coli TOP10
Assay: shrunken log2 fold change of peptide-encoding DNA abundance (4.5 h post-induction vs induction); higher = less antimicrobial activity (less host growth inhibition)
Settings: time post-induction: 4.5 h; library: site-saturation at positions 5, 18, 19, 20
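Also: peptides expressed intracellularly from a pBAD plasmid library in pooled LB shake-flask culture, induced with 0.3% L-arabinose, DNA abundance read by NGS, three biological replicates, DESeq2 with apeglm shrinkage.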

Row | Sequence | shrunken log2 fold change
1 | RRIRQRPPRLPRPRPRPGKDPRP | -0.115
2 | RRIRGRPPRLPRPRPRPFNEPRP | -0.231
3 | RRIRRRPPRLPRPRPRPEGEPRP | 1.17
4 | RRIRHRPPRLPRPRPRPRIDPRP | -0.511
5 | RRIRWRPPRLPRPRPRPHQRPRP | -0.0218
6 | RRIRNRPPRLPRPRPRPTETPRP | -0.00947
7 | RRIRCRPPRLPRPRPRPIPLPRP | 0.148
8 | RRIRCRPPRLPRPRPRPHCPPRP | -0.508
9 | RRIRCRPPRLPRPRPRPATDPRP | -0.112
10 | RRIRQRPPRLPRPRPRPIEYPRP | -0.0135
11 | RRIRKRPPRLPRPRPRPANFPRP | -0.0479
12 | RRIRNRPPRLPRPRPRPTMCPRP | -0.0233
13 | RRIRHRPPRLPRPRPRPQDHPRP | -0.215
14 | RRIRTRPPRLPRPRPRPKREPRP | 0.319
15 | RRIRIRPPRLPRPRPRPFAQPRP | -0.108
16 | RRIRERPPRLPRPRPRPFQRPRP | -0.0653
17 | RRIRERPPRLPRPRPRPVVLPRP | -0.0819
18 | RRIRCRPPRLPRPRPRPLSTPRP | -0.229
19 | RRIRNRPPRLPRPRPRPSNFPRP | -0.31
20 | RRIRSRPPRLPRPRPRPNTRPRP | -0.186
21 | RRIRPRPPRLPRPRPRPDQWPRP | -0.0215
22 | RRIRRRPPRLPRPRPRPAKLPRP | 0.0542
23 | RRIRMRPPRLPRPRPRPNHQPRP | -0.105

Row | Sequence | shrunken log2 fold change
24 | RRIRVRPPRLPRPRPRPKHSPRP | -0.189
25 | RRIRKRPPRLPRPRPRPMWTPRP | 0.151
26 | RRIRTRPPRLPRPRPRPALNPRP | -0.0937
27 | RRIRHRPPRLPRPRPRPRRTPRP | 0.0506
28 | RRIRRRPPRLPRPRPRPRHEPRP | 0.148
29 | RRIRFRPPRLPRPRPRPREPPRP | 0.208
30 | RRIRGRPPRLPRPRPRPWALPRP | -0.115
31 | RRIRPRPPRLPRPRPRPFCKPRP | -0.511
32 | RRIRNRPPRLPRPRPRPMRDPRP | -0.00169
33 | RRIRNRPPRLPRPRPRPSQFPRP | -0.16
34 | RRIRNRPPRLPRPRPRPKLGPRP | 0.055
35 | RRIRGRPPRLPRPRPRPGMCPRP | 0.489
36 | RRIRWRPPRLPRPRPRPCGLPRP | 0.123
37 | RRIRYRPPRLPRPRPRPRVLPRP | -0.322
38 | RRIRTRPPRLPRPRPRPIDGPRP | 0.0685
39 | RRIRTRPPRLPRPRPRPSIDPRP | -0.397
40 | RRIRYRPPRLPRPRPRPCDIPRP | -0.334
41 | RRIRRRPPRLPRPRPRPADQPRP | 0.0865
42 | RRIRCRPPRLPRPRPRPLKTPRP | -0.0197
43 | RRIRQRPPRLPRPRPRPFMLPRP | -0.278
44 | RRIRHRPPRLPRPRPRPGMTPRP | -0.039
45 | RRIRFRPPRLPRPRPRPYCKPRP | -0.243
46 | RRIRCRPPRLPRPRPRPEGDPRP | 0.193

Row | Sequence | shrunken log2 fold change
47 | RRIRNRPPRLPRPRPRPQNPPRP | -0.117
48 | RRIRIRPPRLPRPRPRPNEGPRP | -0.45
49 | RRIRIRPPRLPRPRPRPEAMPRP | 0.124
50 | RRIRVRPPRLPRPRPRPMTDPRP | 0.168
51 | RRIRTRPPRLPRPRPRPFLRPRP | -0.0935
52 | RRIRHRPPRLPRPRPRPDMAPRP | -0.0459
53 | RRIRGRPPRLPRPRPRPEFIPRP | 0.131
54 | RRIRERPPRLPRPRPRPPGNPRP | 0.106
55 | RRIRVRPPRLPRPRPRPHVMPRP | -0.526
56 | RRIRCRPPRLPRPRPRPWIWPRP | -0.128
57 | RRIRCRPPRLPRPRPRPSEDPRP | -0.112
58 | RRIRVRPPRLPRPRPRPHFIPRP | -0.304
59 | RRIRDRPPRLPRPRPRPVMYPRP | -0.166
60 | RRIRVRPPRLPRPRPRPNHWPRP | 0.203
61 | RRIRHRPPRLPRPRPRPHHTPRP | -0.71
62 | RRIRDRPPRLPRPRPRPATQPRP | 0.52
63 | RRIRVRPPRLPRPRPRPCKEPRP | -0.335
64 | RRIRVRPPRLPRPRPRPLGTPRP | 0.188
65 | RRIRERPPRLPRPRPRPYRPPRP | -0.41
66 | RRIRRRPPRLPRPRPRPVVVPRP | 0.186
67 | RRIRNRPPRLPRPRPRPRCRPRP | 0.104
68 | RRIRIRPPRLPRPRPRPTDFPRP | -0.109
69 | RRIRWRPPRLPRPRPRPVRLPRP | 0.428

Row | Sequence | shrunken log2 fold change
70 | RRIRGRPPRLPRPRPRPCPSPRP | 0.0189
71 | RRIRWRPPRLPRPRPRPNNDPRP | -0.213
72 | RRIRVRPPRLPRPRPRPMAKPRP | 0.0605
73 | RRIRYRPPRLPRPRPRPFWAPRP | -0.306
74 | RRIRERPPRLPRPRPRPCYFPRP | -0.917
75 | RRIRRRPPRLPRPRPRPKCLPRP | 0.144
76 | RRIRHRPPRLPRPRPRPTHCPRP | -0.000996
77 | RRIRCRPPRLPRPRPRPEGLPRP | 0.0021
78 | RRIRRRPPRLPRPRPRPLVAPRP | 0.755
79 | RRIRIRPPRLPRPRPRPCDWPRP | 0.00175
80 | RRIRMRPPRLPRPRPRPIKEPRP | -0.00194
81 | RRIRNRPPRLPRPRPRPITPPRP | 0.119
82 | RRIRPRPPRLPRPRPRPSMGPRP | -0.156
83 | RRIRGRPPRLPRPRPRPQFPPRP | -0.0214
84 | RRIRWRPPRLPRPRPRPTCGPRP | 0.73
85 | RRIRGRPPRLPRPRPRPNEFPRP | 0.141
86 | RRIRKRPPRLPRPRPRPPDVPRP | -0.0127
87 | RRIRCRPPRLPRPRPRPHNTPRP | -0.246
88 | RRIRRRPPRLPRPRPRPSCIPRP | -0.596
89 | RRIRDRPPRLPRPRPRPSEMPRP | -0.0135
90 | RRIRLRPPRLPRPRPRPSMCPRP | -0.196
91 | RRIRIRPPRLPRPRPRPLAVPRP | 0.097
